From paper PMC6695210, “Bipartite interface of the measles virus phosphoprotein X domain with the large polymerase protein regulates viral polymerase dynamics” (PLoS Pathogens, 2019)

B1: MeV phosphoprotein (P), wild type [measles virus (strain IC-B)] / MeV L_(1708), C-terminally truncated large polymerase protein lacking the methyltransferase domain [measles virus (strain IC-B)] (parent complex)
chain 1: MAEEQARHVKNGLECIRALKAEPIGSLAVEEAMAAWSEISDNPGQDRATCKEEEAGSSGLSKPCLSAIGSTEGGAPRIRGQGSGESDDDAETLGIPSRNLQASSTGLQCYHVYDHSGEAVKGIQDADSIMVQSGLDGDSTLSGGDDESENSDVDIGEPDTEGYAITDRGSAPISMGFRASDVETAEGGEIHELLKLQSRGNNFPKLGKTLNVPPPPNPSRASTSETPIKKGTDARLASFGTEIASLLTGGATQCARKSPSEPSGPGAPAGNVPECVSNAALIQEWTPESGTTISPRSQNNEEGGDYYDDELFSDVQDIKTALAKIHEDNQKIISKLESLLLLKGEVESIKKQINRQNISISTLEGHLSSIMIAIPGLGKDPNDPTADVELNPDLKPIIGRDSGRALAEVLKKPVASRQLQGMTNGRTSSRGQLLKEFQLKPIGKKVSSAVGFVPDTGPASRSVIRSIIKSSRLEEDRKRYLMTLLDDIKGANDLAKFHQMLMKIIMK
chain 2: MDSLSVNQILYPEVHLDSPIVTNKIVAILEYARVPHAYSLEDPTLCQNIKHRLKNGFSNQMIINNVEVGNVIKSKLRSYPAHSHIPYPNCNQDLFNIEDKESTRKIRELLKKGNSLYSKVSDKVFQCLRDTNSRLGLGSELREDIKEKIINLGVYMHSSQWFEPFLFWFTVKTEMRSVIKSQTHTCHRRRHTPVFFTGSSVELLISRDLVAIISKESQHVYYLTFELVLMYCDVIEGRLMTETAMTIDARYAELLGRVRYMWKLIDGFFPALGNPTYQIVAMLEPLSLAYLQLRDITVELRGAFLNHCFTEIHDVLDQNGFSDEGTYHELIEALDYIFITDDIHLTGEIFSFFRSFGHPRLEAVTAAENVRKYMNQPKVIVYETLMKGHAIFCGIIINGYRDRHGGSWPPLTLPLHAADTIRNAQASGEGLTHEQCVDNWKSFAGVRFGCFMPLSLDSDLTMYLKDKALAALQREWDSVYPKEFLRYDPPKGTGSRRLVDVFLNDSSFDPYDMIMYVVSGAYLHDPEFNLSYSLKEKEIKETGRLFAKMTYKMRACQVIAENLISNGIGKYFKDNGMAKDEHDLTKALHTLAVSGVPKDLKESHRGGPVLKTYSRSPVHTSTRNVKAEKGFVGFPHVIRQNQDTDHPENIETYETVSAFITTDLKKYCLNWRYETISLFAQRLNEIYGLPSFFQWLHKRLETSVLYVSDPHCPPDLDAHVPLCKVPNDQIFIKYPMGGIEGYCQKLWTISTIPYLYLAAYESGVRIASLVQGDNQTIAVTKRVPSTWPYNLKKREAARVTRDYFVILRQRLHDIGHHLKANETIVSSHFFVYSKGIYYDGLLVSQSLKSIARCVFWSETIVDETRAACSNIATTMAKSIERGYDRYLAYSLNVLKVIQQILISLGFTINSTMTRDVVIPLLTNNDLLIRMALLPAPIGGMNYLNMSRLFVRNIGDPVTSSIADLKRMILASLMPEETLHQVMTQQPGDSSFLDWASDPYSANLVCVQSITRLLKNITARFVLIHSPNPMLKGLFHDDSKEEDERLAAFLMDRHIIVPRAAHEILDHSVTGARESIAGMLDTTKGLIRASMRKGGLTSRVITRLSNYDYEQFRAGMVLLTGRKRNVLIDKESCSVQLARALRSHMWARLARGRPIYGLEVPDVLESMRGHLIRRHETCVICECGSVNYGWFFVPSGCQLDDIDKETSSLRVPYIGSTTDERTDMKLAFVRAPSRSLRSAVRIATVYSWAYGDDDSSWNEAWLLARQRANVSLEELRVITPISTSTNLAHRLRDRSTQVKYSGTSLVRVARYTTISNDNLSFVISDKKVDTNFIYQQGMLLGLGVLETLFRLEKDTGSSNTVLHLHVETDCCVIPMIDHPRIPSSRKLELRAELCTNPLIYDNAPLIDRDATRLYTQSHRRHLVEFVTWSTPQLYHILAKSTALSMIDLVTKFEKDHMNEISALIGDDDINSFITEFLLIEPRLFTIYLGQCAAINWAFDVHYHRPSGKYQMGELLSSFLSRMSKGVFKVLVNALSHPKIYKKFWHCGIIEPIHGPSLDAQNLHTTVCNMVYTCYMTYLDLLLNEELEEFTFLLCESDEDVVPDRFDNIQAKHLCVLADLYCQPGTCPPIRGLRPVEKCAVLTDHIKAEARLSPAGSSWNINPIIVDHYSCSLTYLRRGSIKQIRLRVDPGFIFDALAEVNVSQPKVGSN

Variants of: B1
Experiment: co-immunoprecipitation (IP anti-HA of P, immunoblot of L anti-FLAG, densitometry); lysates of transiently transfected cells, lysed 24 hours after transfection; IP at 4°C; parent: 100; read off a plot

Variant | percent of parent
chain 1 R404A, chain 1 L406A | ~14 % of wild type P
chain 1 D401A, chain 1 S402A, chain 1 G403A, chain 1 R404A | ~19 % of wild type P
chain 1 S447A, chain 1 S448A, chain 1 V450A | ~92 % of wild type P
chain 1 P396A, chain 1 I397A, chain 1 I398A, chain 1 G399A | ~22 % of wild type P
chain 1 D383A, chain 1 P384A, chain 1 T385A | ~55 % of wild type P
chain 1 L377A, chain 1 G378A, chain 1 K379A, chain 1 D380A | ~78 % of wild type P
chain 1 K440A, chain 1 P441A, chain 1 I442A, chain 1 G443A | ~75 % of wild type P
chain 1 G431A, chain 1 Q432A, chain 1 L433A, chain 1 L434A | ~85 % of wild type P
chain 1 E408A, chain 1 V409A, chain 1 L410A | ~30 % of wild type P

Variants of: B1
Experiment: as above
Remark: another data set of the same source

Variant | percent of parent
chain 1 I374A, chain 1 P375A, chain 1 G376A, chain 1 L377A | ~9 % of wild type P
chain 1 G365A, chain 1 H366A, chain 1 L367A, chain 1 S368A | ~12 % of wild type P
chain 1 S369A, chain 1 I370A, chain 1 M371A, chain 1 I372A | ~14 % of wild type P
chain 1 S361A, chain 1 T362A, chain 1 L363A, chain 1 E364A | ~3 % of wild type P

Variants of: B1
Experiment: as above
Remark: another data set of the same source

Variant | percent of parent
chain 1 L363A, chain 1 E364A | ~20 % of wild type P
chain 1 L363A | ~38 % of wild type P
chain 1 S361A, chain 1 T362A | ~95 % of wild type P
chain 1 E364A | ~44 % of wild type P
chain 1 S361A | ~85 % of wild type P

Variants of: B1
Experiment: as above
Remark: another data set of the same source

Variant | percent of parent
chain 1 R465E | ~62 % of wild type P
chain 1 K469E | ~75 % of wild type P
chain 1 D486R | ~130 % of wild type P
chain 1 S462R | ~75 % of wild type P
chain 1 R479E | ~82 % of wild type P
chain 1 T483R | ~85 % of wild type P
chain 1 F497D | ~120 % of wild type P
chain 1 D493K | ~150 % of wild type P

Variants of: B1
Experiment: as above
Remark: another data set of the same source

Variant | percent of parent
chain 1 V463R | ~5 % of wild type P
chain 1 S466R | ~20 % of wild type P
chain 1 H498E | ~18 % of wild type P
chain 1 A495R | ~78 % of wild type P
chain 1 S470R | ~65 % of wild type P
chain 1 M502R | ~120 % of wild type P
chain 1 A491R | ~120 % of wild type P
